From FireProtDB (doi:10.1021/bi0512400)

Details: Capra hircus; pH 7.5; 25 °C; GdnHCl; CD; Tris 20 mM; Ca2+ 10 mM; whole UniProt chain shown

B1: Alpha-lactalbumin wild type, P00712 (protein)
chain: MMSFVSLLLVGILFHATQAEQLTKCEVFQKLKDLKDYGGVSLPEWVCTAFHTSGYDTQAIVQNNDSTEYGLFQINNKIWCKDDQNPHSRNICNISCDKFLDDDLTDDIVCAKKILDKVGINYWLAHKALCSEKLDQWLCEKL
B1 showed a denaturant m value of 3 kcal/mol/M and an unfolding free energy of 10.2 kcal/mol.
